This passage reports binding results from article PMC10204968.

The data set deals with Hfq (His6-Hfq) (Histophilus somni strain 2336) (UniProt B0UTF5). Put plainly: EMSA. Particulars: 10 mM Tris-HCl pH 7.4, 6% glycerol, 50 ug/ml BSA, 0.75 ug baker's yeast tRNA, 200 ng sRNA, 15 ul, room temperature 30 min; 6% native PAGE, 0.5x TBE, GelGreen …. In general terms: Mobility shift assays separate free from complexed probe on a gel.
Sequence of Hfq (His6-Hfq) (Histophilus somni strain 2336) (B0UTF5 whole entry): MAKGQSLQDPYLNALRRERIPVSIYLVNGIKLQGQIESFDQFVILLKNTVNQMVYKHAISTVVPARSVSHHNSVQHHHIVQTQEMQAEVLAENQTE

In the case of “GGGAAUAAUACUGAAUAAUAGCUAUAUUACGACAAAGGGCGUAAGCUGCCACAAGUGCUACUUAAUCGGGCGUAAGCUGCCAUAAGUGCUACUUAAUUAGGUGCAAGCUACCGUAAGUGCUGAAGAAAAGAUGCCUAACGGCAUCUUUUUUUUGCU [HS9 sRNA]”, the binding entry was “binds”.
Under “GGGCGCUGGCAGGCUAAUGACUAAUAAGAUGAUAACUAGGAUAAUGUAUUUAAACAUUGUGUUAUCCUCUUCAAAGUUGGGUGGAUUGAAGGUCGCACCCAGCUCGUUUCCGCAGUAUUGCGAAAACAAGAAUAUUAUAGGUCGUUUUAUAUUUCUGGUCAAGGAAUAAAACGACCUAUUUUUUAUUUGAC [HS97 sRNA]” stands “binds”.
